From US20180364250 come the findings set out here.

The subject of this series is OTUB1.

Sequence of UBCH5C (chain, as listed by the source): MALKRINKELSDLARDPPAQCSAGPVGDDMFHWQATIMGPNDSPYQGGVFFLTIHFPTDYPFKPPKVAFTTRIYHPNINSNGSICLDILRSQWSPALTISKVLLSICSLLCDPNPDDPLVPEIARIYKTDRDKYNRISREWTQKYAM

Regarding UBCH5C, the “free ubiquitin released in a real-time deubiquitinase assay (3 µM OTUB1 with or without UbcH5c, 1 nM Atto532-tagged ubiquitin, 1 nM tIVR)” value is “OTUB1 activity is upregulated by UbcH5c, and this was detected by the experiment”.
